For assay [1], the system named is cyno CD138. As to the kind of experiment: FACS binding to Expi293 cells transfected with cyno CD138. Set-up: species or system cynomolgus monkey. Conditions: 3-fold dilutions from 33.3 μg/mL. As for the experimental part:
(§1) 12P16F6 hIgG1 or 13P30A7 hIgG1 were tested for cross-reactivity to cynomolgus monkey CD138. Antibodies that cross-react with CD138 from cynomolgus monkey (cyno) have an advantage that they can be tested for toxicity in this strain of non-human primate prior to conducting efficacy trials. Briefly, a vector directing the cell-surface expression of human CD138 or cyno CD138 was transfected in Expi293 cells. Binding of 12P16F6 hIgG1 and 13P30A7 hIgG1 to transfected Expi293 cells was tested at 3-fold dilutions starting at 33.3 μg/mL.
On the technique in general: In flow cytometry, cells or beads pass a laser one at a time.

Assay [2] has as its target T1, human CD138 (Homo sapiens, UniProt P18827).
T1 sequence (P18827 23-310): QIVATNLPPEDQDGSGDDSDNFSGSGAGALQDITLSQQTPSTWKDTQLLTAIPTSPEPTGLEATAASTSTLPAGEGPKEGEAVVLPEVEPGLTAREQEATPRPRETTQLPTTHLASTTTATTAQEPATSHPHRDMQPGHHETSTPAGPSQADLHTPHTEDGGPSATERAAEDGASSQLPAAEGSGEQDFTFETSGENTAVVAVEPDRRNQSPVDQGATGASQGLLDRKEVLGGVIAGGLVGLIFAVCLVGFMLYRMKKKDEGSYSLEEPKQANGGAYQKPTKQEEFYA
As to the kind of experiment: FACS binding to Expi293 cells transfected with human CD138. Conditions: 3-fold dilutions from 33.3 μg/mL. As for the experimental part: as §1

Sequence of cyno CD138 (as listed by the source): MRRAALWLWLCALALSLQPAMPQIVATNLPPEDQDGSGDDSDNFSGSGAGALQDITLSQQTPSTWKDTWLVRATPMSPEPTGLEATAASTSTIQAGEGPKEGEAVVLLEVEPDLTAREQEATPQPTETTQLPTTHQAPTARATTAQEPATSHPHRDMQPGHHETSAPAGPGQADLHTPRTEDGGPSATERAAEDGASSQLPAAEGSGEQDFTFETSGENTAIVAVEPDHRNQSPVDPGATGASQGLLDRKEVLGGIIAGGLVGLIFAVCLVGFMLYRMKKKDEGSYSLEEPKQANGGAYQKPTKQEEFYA

B1: 13P30A7 hIgG1: chimeric antibody: murine variable regions of F13P30A7 (SEQ ID NO:83, 35), constant regions of human IgG1, kappa (antibody, listed as Mus musculus, V domains shown)
VH: EVQLVESGGGLVQPKGSLKLSCAASGFTFNTYAMNWVRQAPGKGLEWIARIRSKSNNYATYYADSVKDRFTISRDDSQSLLYLQMNNLKTEDTAIFYCVTDYGYVYFDAWGAGTTVTVSS
VL: NIIMTQSPKSMAMSVGERVTLSCKASENVGNYVSWYQQKPEQSPKLLIYGASYRYTGVPDRFTGSGSGTDFTLTISSVQAEDLADYHCGQSSRYPLTFGAGTKLELKR
modifications: human IgG1 and kappa constant regions
For B1, the “binding to cynomolgus CD138 expressing cells” value in assay [1] is given as “specific binding”. Also, the “binding to human CD138 expressing cells” value in assay [2] is “specific binding”.
